In patent publication US20200157519A1 (IMMUNWORK, published 2020):

Key:
[1] = molecular target: T1, mouse fibrinogen (mouse, UniProt E9PV24 20-557; Q8K0E8 20-481; Q8VCM7 26-436, limits assumed); test: ELISA on coated plate, HRP-protein L detection
T1 construct: Bought protein; also called fibrinogen from mouse (Sigma)
T1 sequence (looked up) 1: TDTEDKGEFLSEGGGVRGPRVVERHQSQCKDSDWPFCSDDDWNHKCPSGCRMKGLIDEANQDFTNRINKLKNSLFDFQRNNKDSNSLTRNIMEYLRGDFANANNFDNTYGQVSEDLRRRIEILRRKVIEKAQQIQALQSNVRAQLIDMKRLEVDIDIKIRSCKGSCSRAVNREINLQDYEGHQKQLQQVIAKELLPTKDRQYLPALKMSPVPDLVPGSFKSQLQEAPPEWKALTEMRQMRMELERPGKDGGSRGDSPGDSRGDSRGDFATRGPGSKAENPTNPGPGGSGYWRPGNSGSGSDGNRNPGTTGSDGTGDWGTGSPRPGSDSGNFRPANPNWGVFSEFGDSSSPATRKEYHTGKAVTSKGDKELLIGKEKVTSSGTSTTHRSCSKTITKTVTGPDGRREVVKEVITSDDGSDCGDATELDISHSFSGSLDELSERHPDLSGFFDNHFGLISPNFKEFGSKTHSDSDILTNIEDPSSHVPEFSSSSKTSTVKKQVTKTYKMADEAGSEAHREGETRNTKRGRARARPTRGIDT
T1 sequence (looked up) 2: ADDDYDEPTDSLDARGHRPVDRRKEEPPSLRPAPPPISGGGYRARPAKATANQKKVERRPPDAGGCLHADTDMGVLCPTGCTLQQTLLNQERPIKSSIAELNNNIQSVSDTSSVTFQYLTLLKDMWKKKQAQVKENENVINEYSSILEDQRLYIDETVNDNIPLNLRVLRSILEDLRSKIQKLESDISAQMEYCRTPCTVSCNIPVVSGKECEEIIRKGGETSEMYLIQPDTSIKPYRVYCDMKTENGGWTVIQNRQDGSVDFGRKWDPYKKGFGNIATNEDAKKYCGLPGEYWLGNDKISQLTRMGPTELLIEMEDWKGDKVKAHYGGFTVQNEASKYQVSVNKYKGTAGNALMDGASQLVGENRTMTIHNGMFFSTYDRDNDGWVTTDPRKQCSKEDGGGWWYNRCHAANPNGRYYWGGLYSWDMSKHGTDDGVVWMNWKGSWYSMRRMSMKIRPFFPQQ
T1 sequence (looked up) 3: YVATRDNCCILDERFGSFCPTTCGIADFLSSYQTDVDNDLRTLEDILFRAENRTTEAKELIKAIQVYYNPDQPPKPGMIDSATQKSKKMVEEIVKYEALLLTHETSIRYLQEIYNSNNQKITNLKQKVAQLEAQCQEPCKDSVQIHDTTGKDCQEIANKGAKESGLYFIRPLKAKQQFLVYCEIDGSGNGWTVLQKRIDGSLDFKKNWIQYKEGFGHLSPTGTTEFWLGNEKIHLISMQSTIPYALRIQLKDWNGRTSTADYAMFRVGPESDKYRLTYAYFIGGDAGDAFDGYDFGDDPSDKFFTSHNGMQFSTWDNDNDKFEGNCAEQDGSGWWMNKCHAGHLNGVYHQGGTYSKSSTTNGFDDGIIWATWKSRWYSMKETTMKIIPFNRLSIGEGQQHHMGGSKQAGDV

[2] = molecular target: T2, mouse fibrin (mouse fibrinogen coated on the plate and treated with thrombin) (mouse, UniProt E9PV24 37-557; Q8K0E8 35-481; Q8VCM7 26-436); test: ELISA at 200 nM on mouse fibrin plate, HRP-protein L
T2 construct: Made on the plate from mouse fibrinogen (Sigma) with thrombin
T2 sequence (looked up) 1: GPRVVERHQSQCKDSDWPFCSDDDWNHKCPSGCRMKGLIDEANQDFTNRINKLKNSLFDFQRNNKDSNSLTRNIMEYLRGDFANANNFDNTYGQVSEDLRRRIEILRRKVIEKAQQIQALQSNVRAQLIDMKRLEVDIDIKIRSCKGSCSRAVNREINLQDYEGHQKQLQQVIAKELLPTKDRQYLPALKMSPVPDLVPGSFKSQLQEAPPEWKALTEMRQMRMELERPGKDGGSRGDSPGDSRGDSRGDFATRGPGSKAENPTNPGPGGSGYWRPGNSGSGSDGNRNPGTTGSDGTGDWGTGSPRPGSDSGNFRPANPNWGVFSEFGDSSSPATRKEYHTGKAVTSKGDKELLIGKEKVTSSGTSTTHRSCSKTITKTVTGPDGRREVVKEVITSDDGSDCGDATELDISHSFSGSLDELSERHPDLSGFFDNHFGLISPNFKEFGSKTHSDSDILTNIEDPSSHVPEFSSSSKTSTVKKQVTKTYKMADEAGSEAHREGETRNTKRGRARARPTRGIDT
T2 sequence (looked up) 2: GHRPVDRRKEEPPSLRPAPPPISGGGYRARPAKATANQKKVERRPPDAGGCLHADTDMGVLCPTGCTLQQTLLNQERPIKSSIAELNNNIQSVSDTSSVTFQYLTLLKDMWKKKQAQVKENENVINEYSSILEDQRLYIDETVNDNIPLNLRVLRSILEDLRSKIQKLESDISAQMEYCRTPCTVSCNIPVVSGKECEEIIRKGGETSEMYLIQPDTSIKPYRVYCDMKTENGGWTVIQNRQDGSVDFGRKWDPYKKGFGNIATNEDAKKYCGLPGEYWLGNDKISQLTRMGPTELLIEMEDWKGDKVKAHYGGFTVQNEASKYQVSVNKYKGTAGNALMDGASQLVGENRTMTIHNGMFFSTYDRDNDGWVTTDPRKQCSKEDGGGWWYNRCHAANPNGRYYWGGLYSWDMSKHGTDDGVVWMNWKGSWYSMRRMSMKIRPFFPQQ
T2 sequence (looked up) 3: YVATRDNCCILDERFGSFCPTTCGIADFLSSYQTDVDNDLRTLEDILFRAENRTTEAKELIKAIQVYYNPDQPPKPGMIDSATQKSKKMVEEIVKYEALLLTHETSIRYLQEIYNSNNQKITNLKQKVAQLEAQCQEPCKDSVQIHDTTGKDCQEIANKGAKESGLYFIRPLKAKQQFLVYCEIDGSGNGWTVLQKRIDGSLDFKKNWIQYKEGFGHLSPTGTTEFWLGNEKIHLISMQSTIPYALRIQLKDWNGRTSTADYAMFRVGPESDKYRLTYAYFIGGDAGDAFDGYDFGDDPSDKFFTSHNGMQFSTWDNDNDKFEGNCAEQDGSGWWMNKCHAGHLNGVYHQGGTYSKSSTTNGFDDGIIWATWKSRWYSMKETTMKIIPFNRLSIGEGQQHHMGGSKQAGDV
Method: The procedures for ELISA analysis were similar to the procedures described in the previous Examples. Briefly, fibrinogen from mouse (Sigma) diluted with PBS was added to a 96-well polystyrene microplate at 100 μL/well, and then the plate was sealed and allowed to stand at 4° C., overnight.
Each fibrin plate was prepared as follows. 100 μL of TBS containing a final concentration of 1.0 U/mL thrombin (Sigma), 2 mM CaCl₂ and 7 mM L-cysteine (Merck) was added to the wells of the fibrinogen plate, which was then washed with TBS and blocked with the buffer (5% non-fat dry milk/PBS). Thereafter, 100 μL of reteplase-(3D5-scFv) at various final concentrations (600 nM, 200 nM, 66 nM, 22 nM, 7.4 nM, 2.5 nM, and 0.8 nM) were added to each well and incubate at room temperature for 1 hour. The plate was than washed for three times, and HRP-conjugated protein L diluted to 1/5000 was added to the wells and incubated for 1 hour at room temperature. The wells were washed three times and added with 100 μL of TMB substrate buffer. 5 minutes later, the color development was stopped with 1 M HCl. The optical density (OD) was measured at 450 nm using a microplate reader.

B1: recombinant reteplase-(3D5 VL-218-VH scFv α fibrin) protein (other)
chain: SYQGNSDCYFGNGSAYRGTHSLTESGASCLPWNSMILIGKVYTAQNPSAQALGLGKHNYCRNPDGDAKPWCHVLKNRRLTWEYCDVPSCSTCGLRQYSQPQFRIKGGLFADIASHPWQAAIFAKHRRSPGERFLCGGILISSCWILSAAHCFQERFPPHHLTVILGRTYRVVPGEEEQKFEVEKYIVHKEFDDDTYDNDIALLQLKSDSSRCAQESSVVRTVCLPPADLQLPDWTECELSGYGKHEALSPFYSERLKEAHVRLYPSSRCTSQHLLNRTVTDNMLCAGDTRSGGPQANLHDACQGDSGGPLVCLNDGRMTLVGIISWGLGCGQKDVPGVYTKVTNYLDWIRDNMRPASGGGGSGGGGSGGGGSDIQMTQSPSSLSASVGDRVTITCRASQDVSNNVAWYQQKPGKAPKLLIFWSPWLYSGVPSRFSGSGSGTDFTLTISSLQPEDFATYYCQQGWDSPVTFGQGTKVEIKRGSTSGSGKPGSGEGSTKGEVQLVESGGGLVQPGGSLRLSCAASGFTISDFGIHWVRQAPGKGLEWVASIWPSGGYTYYADSVKGRFTISADTSKNTAYLQMNSLRAEDTAVYYCARSWFYSWYDYWGQGTLVTVSS
notes: Fusion: reteplase, flexible linker, 3D5 VL, 218 linker, 3D5 VH; also called reteplase-(3D5 scFv); reteplase-(3D5-scFv)
B1: no binding (tested: 200 nM) [1]; binds [2].
